Two molecules from patent publication US12083109B2, “Neurokinin antagonists and uses thereof” (California Institute of Technology, priority 2017, dated 2024) can be followed below.

For series [1], the target named is T1, Nk3R (Mus musculus, UniProt P47937).
T1 sequence (P47937 1-452): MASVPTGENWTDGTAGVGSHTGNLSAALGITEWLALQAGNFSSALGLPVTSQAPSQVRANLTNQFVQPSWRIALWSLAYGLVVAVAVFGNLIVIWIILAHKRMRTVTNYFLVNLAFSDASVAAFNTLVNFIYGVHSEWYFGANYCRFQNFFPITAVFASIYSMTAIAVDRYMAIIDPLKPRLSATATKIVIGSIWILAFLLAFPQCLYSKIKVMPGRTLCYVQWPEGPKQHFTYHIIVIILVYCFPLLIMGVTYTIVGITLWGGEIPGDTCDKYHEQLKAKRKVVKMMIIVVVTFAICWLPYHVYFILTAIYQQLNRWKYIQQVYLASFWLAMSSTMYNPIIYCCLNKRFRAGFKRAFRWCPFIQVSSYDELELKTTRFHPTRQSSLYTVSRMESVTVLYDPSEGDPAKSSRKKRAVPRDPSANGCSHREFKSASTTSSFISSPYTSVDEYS
The series is described as follows: Tone fear conditioning test (freezing to conditioned tone), osanetant. To be noted: osanetant daily during two-week isolation, tested off-drug. Format: in vivo. On the set-up: from tissue; host or cells: Living mice (wild-type C57Bl6/N males, Charles River).

Series [2] relates to Tac2. Briefly: Resident intruder assay, Tac2 shRNA knockdown. Format: in vivo, mouse. As to conditions: SIS mice. The text has this:
Small hairpin RNA (shRNA) for the mouse Tac2 gene (NM_009312.2) were designed using the online designing tool siDirect 2.0 (http://sidirect2.mai.jp/) (Naito et al., 2009; incorporated by reference in its entirety).
8-16 week old mice were anesthetized with isoflurane and mounted in a stereotaxic apparatus (Kopf Instruments). Anesthesia was maintained throughout surgery at 1-1.5% isoflurane. The skull was exposed and small burr holes produced dorsal to each injection site using a stereotaxic mounted drill. […] Directly following surgery, mice were given a subcutaneous injection of ketoprofen (2 mg/kg) and supplied with drinking water containing 400 mg/L sulphamethoxazole and 200 mg/L ibuprofen and monitored for 7 days. […]
Testing for aggression using the resident intruder assay (Blanchard et al., 2003; incorporated by reference in its entirety) was performed as previously described (Hong et al., 2015; Hong et al., 2014; Lee et al., 2014; incorporated by reference in their entirety). […] Fighting bouts were scored on a frame-by-frame basis and were defined as a frame during which the resident male was engaged in an episode of biting or intense aggressive behavior immediately surrounding a biting episode. Annotation files were then batch analyzed for behavior, including number of fighting bouts, using in-house customized programs in MATLAB (A. Kennedy, Caltech). […]

On to `CC(=O)N(C)C1(c2ccccc2)CCN(CCC[C@]2(c3ccc(Cl)c(Cl)c3)CCCN(C(=O)c3ccccc3)C2)CC1` [osanetant, N-(1-{3-[(3R)-1-benzoyl-3-(3,4-dichlorophenyl)piperidin-3-yl]propyl}-4-phenylpiperidin-4-yl)-N-methylacetamide], for which the “persistent freezing to fear conditioned tone” value in series [1] is given as “prevented”.

B1: shRNA-1: small hairpin RNA for mouse Tac2 gene (SEQ ID NO: 9, 10), expressed from AAV5-H1-shRNA-CMV-zsGreen (nucleic acid)
chain 1: CCGACGTGGTTGAAGAGAACACCGCTTCCTGTCACGGTGTTCTCTTCAACCACGTCTTTTTT
chain 2: AAAAAAGACGTGGTTGAAGAGAACACCGTGACAGGAAGCGGTGTTCTCTTCAACCACGTCGG
As for B1, the figures for the SIS-induced aggression result in series [2] (AAV shRNA in DMH) and in series [2] (AAV shRNA in dBNSTa) were “blocked” and “had no effect”, respectively.
